From the Immune Epitope Database (IEDB)
pIC50, pKd: −log10 of the molar value.

Tests used:
HLA-B*44:02 [1] = assay: IEDB peptide-MHC binding, purified MHC/direct/fluorescence; filed as Kd, often an IC50 or EC50 that approximates it; ≥ and ≤ were set here for values at or beyond the usual limits of such assays; conditions: source organism: Dengue virus
HLA-B*18:01 [2] = assay: as above; conditions: source organism: Dengue virus
HLA-B*40:01 = assay: IEDB peptide-MHC binding, purified MHC/competitive/radioactivity; filed as Kd, often an IC50 or EC50 that approximates it; ≥ and ≤ were set here for values at or beyond the usual limits of such assays; conditions: source organism: Dengue virus 1 Singapore/S275/1990
HLA-B*44:02 [3] = assay: as above
HLA-B*44:03 = assay: as above
HLA-A*03:01 [4] = assay: IEDB peptide-MHC binding, purified MHC/competitive/fluorescence; filed as Kd, often an IC50 or EC50 that approximates it; ≥ and ≤ were set here for values at or beyond the usual limits of such assays
HLA-B*15:01 [5] = assay: as above; conditions: source organism: Salmonella enterica subsp. enterica serovar Typhi
HLA-B*15:03 = assay: IEDB peptide-MHC binding, purified MHC/competitive/radioactivity; filed as Kd, often an IC50 or EC50 that approximates it; ≥ and ≤ were set here for values at or beyond the usual limits of such assays; conditions: source organism: Vaccinia virus WR
HLA-B*15:01 [6] = assay: IEDB peptide-MHC binding, purified MHC/competitive/fluorescence; ≥ and ≤ were set here for values at or beyond the usual limits of such assays
HLA-A*24:02 = assay: as above
HLA-A*02:01 [7] = assay: as above
HLA-B*08:01 = assay: IEDB peptide-MHC binding, purified MHC/competitive/radioactivity; filed as Kd, often an IC50 or EC50 that approximates it; ≥ and ≤ were set here for values at or beyond the usual limits of such assays; conditions: source organism: Vaccinia virus WR
HLA-B*15:01 [8] = assay: as above; conditions: source organism: Vaccinia virus WR
HLA-A*02:19 = assay: IEDB peptide-MHC binding, purified MHC/direct/fluorescence; filed as Kd, often an IC50 or EC50 that approximates it; ≥ and ≤ were set here for values at or beyond the usual limits of such assays; conditions: source organism: Convict Creek 107 virus
HLA-A*03:01 [9] = assay: as above; conditions: source organism: Convict Creek 107 virus
HLA-A*02:01 [10] = assay: as above; conditions: source organism: Orthohantavirus andesense
HLA-B*57:01 = assay: IEDB peptide-MHC binding, purified MHC/competitive/fluorescence; filed as Kd, often an IC50 or EC50 that approximates it; ≥ and ≤ were set here for values at or beyond the usual limits of such assays; conditions: source organism: Orthohantavirus sinnombreense
HLA-B*15:17 = assay: as above; conditions: source organism: Orthohantavirus sinnombreense
HLA-B*39:01 = assay: as above; conditions: source organism: Orthohantavirus sinnombreense
HLA-B*27:03 = assay: as above; conditions: source organism: Orthohantavirus sinnombreense
HLA-A*26:01 = assay: as above; conditions: source organism: Orthohantavirus sinnombreense
HLA-B*46:01 = assay: as above; conditions: source organism: Orthohantavirus sinnombreense
HLA-B*18:01 [11] = assay: as above; conditions: source organism: Orthohantavirus sinnombreense
HLA-B*51:01 = assay: as above; conditions: source organism: Orthohantavirus sinnombreense
HLA-A*32:01 = assay: IEDB peptide-MHC binding, purified MHC/competitive/radioactivity; filed as Kd, often an IC50 or EC50 that approximates it; ≥ and ≤ were set here for values at or beyond the usual limits of such assays; conditions: source organism: Vaccinia virus WR
HLA-A*30:01 = assay: as above; conditions: source organism: Vaccinia virus WR
HLA-B*48:01 = assay: IEDB peptide-MHC binding, purified MHC/direct/fluorescence; filed as Kd, often an IC50 or EC50 that approximates it; ≥ and ≤ were set here for values at or beyond the usual limits of such assays
[12] = source organism: Dengue virus 1 Singapore/S275/1990
[13] = source organism: Vaccinia virus WR
[14] = source organism: Dengue virus 2 Jamaica/1409/1983
[15] = source organism: Sudan ebolavirus
[16] = source organism: Zaire ebolavirus
[17] = source organism: Dengue virus 4 Philippines/H241/1956
[18] = source organism: Dengue virus 1 Brazil/97-11/1997
[19] = source organism: Dengue virus 3 Martinique/1243/1999
[20] = source organism: Vaccinia virus Copenhagen

AELTGYGTV
pKd (HLA-B*44:02 [1]): ≤ 4.70
pKd (HLA-B*18:01 [2]): 6.33

AENHHHATM
pKd (HLA-B*40:01): 8.00
pKd (HLA-B*44:02 [3]; [12]): 7.56
pKd (HLA-B*44:03; [12]): 6.94

AMAAAGMMY
pKd (HLA-A*03:01 [4]; source organism: Salmonella enterica subsp. enterica serovar Typhi): 6.16
pKd (HLA-B*15:01 [5]): 6.48

ASTNLGSSF
pKd (HLA-B*15:03): 6.79

CMIRWLGGI
pIC50 (HLA-B*15:01 [6]; [13]): 4.52
pIC50 (HLA-A*24:02; [13]): 5.40
pIC50 (HLA-A*02:01 [7]; [13]): 6.37

CMKTFFGWK
pKd (HLA-A*03:01 [4]; source organism: Influenza A virus (A/Hong Kong/1774/99(H3N2))): 7.45

EEEQTLTILI
pKd (HLA-B*44:02 [3]; [14]): 7.76
pKd (HLA-B*44:03; [14]): 6.89

ELYMYFNHV
pKd (HLA-B*08:01): 6.62
pKd (HLA-B*15:03): 6.38
pKd (HLA-B*15:01 [8]): 5.88

EQFVGTNSI
pKd (HLA-B*15:03): 6.71

FINMTGNHF
pKd (HLA-B*15:03): 7.47
pKd (HLA-B*15:01 [8]): 7.79

FKINIFMAF
pKd (HLA-B*08:01): 4.97
pKd (HLA-B*15:03): 7.99

FQLNDTIHL
pIC50 (HLA-B*15:01 [6]; [15]): 4.30
pIC50 (HLA-A*24:02; [15]): 4.43
pIC50 (HLA-A*02:01 [7]; [15]): 5.82

FQQTNAMVT
pIC50 (HLA-B*15:01 [6]; [16]): 4.44
pIC50 (HLA-A*02:01 [7]; [16]): 4.96

GEGLHRLGY
pKd (HLA-B*44:02 [3]; [17]): 7.94
pKd (HLA-B*44:03; [17]): 7.75

IETPNELSF
pKd (HLA-B*15:03): 6.54

KEAVEDERFW
pKd (HLA-B*44:02 [3]; [18]): 7.34
pKd (HLA-B*44:03; [18]): 6.52

KEEHNSTWHY
pKd (HLA-B*44:02 [3]; [19]): 6.74
pKd (HLA-B*44:03; [19]): 4.98

KKVYTFFKF
pKd (HLA-B*15:03): 8.44

KLHRYIDSM
pKd (HLA-A*02:19): ≤ 4.70
pKd (HLA-A*03:01 [9]): ≤ 4.70
pKd (HLA-A*02:01 [10]): 7.47
pKd (HLA-B*57:01): ≤ 4.70
pKd (HLA-B*15:17): ≤ 4.70
pKd (HLA-B*39:01): ≤ 4.70
pKd (HLA-B*27:03): ≤ 4.70
pKd (HLA-A*26:01): ≤ 4.70
pKd (HLA-B*46:01): ≤ 4.70
pKd (HLA-B*18:01 [11]): ≤ 4.70
pKd (HLA-B*51:01): ≤ 4.70

KLLSHFYPA
pKd (HLA-B*08:01): 7.09
pKd (HLA-B*15:03): 8.27
pKd (HLA-A*32:01): 6.89
pKd (HLA-B*15:01 [8]): 7.41
pKd (HLA-A*30:01): 5.48

KMSFLPIIF
pKd (HLA-B*15:03): 10.10
pKd (HLA-A*32:01): 8.17

KQYKFYNQI
pKd (HLA-B*08:01): ≤ 4.11
pKd (HLA-B*15:03): 6.92
pKd (HLA-A*32:01): 4.97
pKd (HLA-B*15:01 [8]): 5.18
pKd (HLA-A*30:01): 5.87

LEFNTPFVF
pKd (HLA-B*15:03): 7.98

LHHAYQGDY
pIC50 (HLA-B*15:01 [6]; [16]): ≤ 3.69

LQYVHINEL
pKd (HLA-B*15:03): 8.44

LYRPNIPLK
pKd (HLA-B*08:01): ≤ 4.48
pKd (HLA-B*15:03): ≤ 4.16
pKd (HLA-A*32:01): ≤ 4.11
pKd (HLA-B*15:01 [8]): ≤ 4.25
pKd (HLA-A*30:01): 8.46

MEDKTPVESW
pKd (HLA-B*44:02 [3]; [14]): 7.48
pKd (HLA-B*44:03; [14]): 7.15

NERGKSLLF
pKd (HLA-B*44:02 [3]; [19]): 6.33
pKd (HLA-B*44:03; [19]): 6.91

NYLFGGFST
pIC50 (HLA-B*15:01 [6]; source organism: Variola virus): ≤ 3.54
pIC50 (HLA-A*24:02; source organism: Variola virus): 5.78
pIC50 (HLA-A*02:01 [7]; source organism: Variola virus): 4.63

RMLHLSQMH
pKd (HLA-A*03:01 [4]; source organism: Bacillus anthracis str. A0488): 7.59

RQMVNDMIF
pKd (HLA-B*15:03): 8.90

RRLAATTEK
pKd (HLA-B*48:01; source organism: West Nile virus): ≤ 4.70

RTRNMFRKK
pKd (HLA-B*15:03): ≤ 4.29
pKd (HLA-A*30:01): 10.05

SEMIIPKIY
pKd (HLA-B*44:02 [3]; [12]): 8.06
pKd (HLA-B*44:03; [12]): 7.89

SMFLMTATL
pIC50 (HLA-B*15:01 [6]; source organism: Variola virus): 5.95

SMKTVFQVF
pKd (HLA-B*08:01): 6.75
pKd (HLA-B*15:03): 8.42
pKd (HLA-B*15:01 [8]): 8.80

SQYANCSSI
pIC50 (HLA-B*15:01 [6]; [20]): 5.13
pIC50 (HLA-A*24:02; [20]): ≤ 4.08

VGRVNPGTY
pIC50 (HLA-B*15:01 [6]; source organism: Variola virus): 4.53
pIC50 (HLA-A*24:02; source organism: Variola virus): 5.26

VINRLGADL
pIC50 (HLA-B*15:01 [6]; [13]): ≤ 3.98
pIC50 (HLA-A*02:01 [7]; [13]): ≤ 4.12

VVANVIGLS
pIC50 (HLA-B*15:01 [6]; [20]): 4.33
pIC50 (HLA-A*02:01 [7]; [20]): 4.57

VVNYEAGEW
pIC50 (HLA-B*15:01 [6]; [16]): ≤ 3.93
pIC50 (HLA-A*24:02; [16]): ≤ 4.12

WEGNPGRFW
pKd (HLA-B*44:02 [3]; [14]): 7.89
pKd (HLA-B*44:03; [14]): 7.05

WKWFYKKYL
pKd (HLA-B*48:01; source organism: Campylobacter jejuni subsp. jejuni HB93-13): 6.57

YDEDNPYKTW
pKd (HLA-B*44:02 [3]; [18]): 6.33
